According to publication PMC10977697 (PLOS ONE, 2024):

T1: Notch2NRR (Notch2 NRR domain) (human, UniProt Q04721 1423-1677, biotin on the N-terminal Avi tag (enzymatic))
T1 construct: also called NRR protein; not shown: Avi tag, N-terminal, kept
T1 sequence (looked up): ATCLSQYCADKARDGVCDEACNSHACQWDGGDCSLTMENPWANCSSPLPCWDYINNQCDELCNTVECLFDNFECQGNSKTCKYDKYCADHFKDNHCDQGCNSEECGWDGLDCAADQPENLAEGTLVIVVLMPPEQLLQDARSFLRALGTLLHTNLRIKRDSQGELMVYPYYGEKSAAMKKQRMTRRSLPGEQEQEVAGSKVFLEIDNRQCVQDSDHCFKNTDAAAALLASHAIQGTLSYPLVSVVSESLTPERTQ

T2: Notch2Long (Notch2 EGF6-EGF12) (human, UniProt Q04721 219-418, biotin via the N-terminal Avi tag (enzymatic biotinylation))
T2 construct: also called N2L protein; hNotch2; not shown: Avi tag, N-terminal, kept
T2 sequence (looked up): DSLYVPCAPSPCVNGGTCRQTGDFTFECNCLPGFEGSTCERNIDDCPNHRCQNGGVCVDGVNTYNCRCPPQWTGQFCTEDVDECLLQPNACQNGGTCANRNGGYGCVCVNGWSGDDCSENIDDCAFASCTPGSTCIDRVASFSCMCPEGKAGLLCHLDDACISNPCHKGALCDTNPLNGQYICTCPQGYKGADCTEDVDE

T3: Notch2Long (Notch2 EGF6-EGF12) (human, UniProt Q04721 219-418, biotin on the N-terminal Avi tag (enzymatic))
T3 construct: also called N2L protein; hNotch2; not shown: Avi tag, N-terminal, kept
T3 sequence (looked up): T2 sequence (looked up)


target: T1, Notch2NRR (Notch2 NRR domain); test: ELISA; settings: one partner purified

Binder	ELISA	s/n Ratio
GCQQRRWGGWQQCKQDSDCLAGCVCGPNGFCG (designed binder) [N2N-EET-33 displayed on M13 phage]	3.6	28.9
GCGQKRMGGWQWCKQDSDCLAGCVCGPNGFCG (designed binder) [N2N-EET-n13 displayed on M13 phage]	3.4	53.9
GCGQQRWGGWPLCKQDSDCLAGCVCGPNGFCG (designed binder) [N2N-EET-45 displayed on M13 phage]	3.5	14.9
GCMPRYGGWHCKQDSDCLAGCVCGPNGFCG (designed binder) [N2N-EET-63 displayed on M13 phage]	1.5	21.3
GCRPRFKGWTCKQDSDCLAGCVCGPNGFCG (designed binder) [N2N-EET-n3 displayed on M13 phage]	2.1	33.1
GCRPRWGGWHCKQDSDCLAGCVCGPNGFCG (designed binder) [N2N-EET-57 displayed on M13 phage]	3.8	30.9

target: T4, HtrA1 (human, UniProt Q92743 23-480, biotin on lysines (Sulfo-NHS-LC-biotin) for panning and SPR); test: ELISA; settings: one partner purified
T4 construct: also called HtrA1 FL; human full-length HtrA1
T4 sequence (Q92743 23-480): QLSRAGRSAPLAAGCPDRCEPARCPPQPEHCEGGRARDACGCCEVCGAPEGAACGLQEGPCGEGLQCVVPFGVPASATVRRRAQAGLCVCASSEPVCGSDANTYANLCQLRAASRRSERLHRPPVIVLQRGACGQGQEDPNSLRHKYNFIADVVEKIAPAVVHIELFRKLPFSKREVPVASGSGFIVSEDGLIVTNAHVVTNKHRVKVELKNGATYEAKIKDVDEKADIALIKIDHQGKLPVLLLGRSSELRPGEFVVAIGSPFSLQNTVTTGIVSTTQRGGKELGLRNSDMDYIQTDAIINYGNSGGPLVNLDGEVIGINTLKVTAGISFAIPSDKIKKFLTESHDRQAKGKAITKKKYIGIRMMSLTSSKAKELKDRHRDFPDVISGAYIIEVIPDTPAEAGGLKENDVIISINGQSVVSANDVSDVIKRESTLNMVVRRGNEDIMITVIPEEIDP

Binder	ELISA	s/n Ratio
ECKGKGAKCSIQWSVYPWKVCCTGSCRSGKC (designed binder, Conotoxin-MVIIA scaffold) [HtrA1_CnTx83 displayed on M13 phage]	1.1	16.1
WIPCISAALGCSCKNKVCYFLYQICGESCV (designed binder) [HtrA1_CirA38 displayed on M13 phage]	2.1	31.9
GCHRPWWQLWGLCKQDSDCLAGCVCGPNGFCG (designed binder) [HtrA1_EET76 displayed on M13 phage]	1	13.7
WIPCISAALGCSCKNKVCYIFSKHLCGESCV (designed binder) [HtrA1_CirA65 displayed on M13 phage]	2.2	33.9
ACKGVFDACTWKNWRQSRSRECCPNAVCSDKHKWCKWKL (designed binder, Huwentoxin scaffold) [HtrA1_HwTx69 displayed on M13 phage]	0.9	9.6

target: T2, Notch2Long (Notch2 EGF6-EGF12); test: SPR; settings: both partners purified

Binder	Kd [µM]
GCGWTLRHCKQDSDCLAGCVCEPKWWCG (designed binder) [N2L.EET03.63]	44.8
GCGWTLRHCKQDSDCLAGCVCEPIWWCG (designed binder) [N2L.EET03.18]	8.9
GCGWTLRHCKQDSDCLAGCVCKPKWTCG (designed binder) [N2L.EET03.34]	8.6
GCGWTLMHCKQDSDCLAGCVCEPIWWCG (designed binder) [N2L.EET03.n5]	13.2
GCGWTLWHCKQDSDCLAGCVCEPKWFCG (designed binder) [N2L.EET03.58]	8.2
GCGWTLRHCKQDSDCLAGCVCEPKWMCG (designed binder) [N2L.EET03.1867]	9.5
GCGWTLWHCKQDSDCLAGCVCEPKWMCG (designed binder) [N2L.EET03.67]	15.4
GCGWTLRHCKQDSDCLAGCVCEPVWWCG (designed binder) [N2L.EET03.88]	8.8
GCGWTLKHCKQDSDCLAGCVCEPIWWCG (designed binder) [N2L.EET03.30]	13.1

target: T3, Notch2Long (Notch2 EGF6-EGF12); test: ELISA; settings: one partner purified

Binder	ELISA	s/n Ratio
GCIKSHLWCPKTSDCEAGCICEVWIQCG (designed binder) [N2L.EET31.43.24 displayed on M13 phage (p3)]	2.1	10.5
GCIKSHLWCPRDSDCLAGCVCEVWIQCG (designed binder) [N2L.EET31.32.13 displayed on M13 phage (p3)]	2.2	10.2
GCIKSHLWCPHGGRCEAGCICEVWIQCG (designed binder) [N2L.EET31.43.30 displayed on M13 phage (p3)]	2.2	10.7
GCIKSHLWCPPPRRCEAGCICEVWIQCG (designed binder) [N2L.EET31.43.35 displayed on M13 phage (p3)]	2.1	11.6
GCIKSHLWCDPRKDCEAGCICEVWIQCG (designed binder) [N2L.EET31.43.75 displayed on M13 phage (p3)]	2.1	10.3
GCIKSHLWCPPSDYCLAGCVCEVWIQCG (designed binder) [N2L.EET31.32.21 displayed on M13 phage (p3)]	1.8	9.1
GCIKSHLWCDPRVSCEAGCICEVWIQCG (designed binder) [N2L.EET31.43.78 displayed on M13 phage (p3)]	1.9	10.3
GCIKSHLWCDPRKSCEAGCICEVWIQCG (designed binder) [N2L.EET31.43.88 displayed on M13 phage (p3)]	1.9	10.2
GCIKSHLWCPRAEKCLAGCICEVWIQCG (designed binder) [N2L.EET31.32.33 displayed on M13 phage (p3)]	1.9	9.3
GCIRSHVWCKQDSDCEAGCICEIWIQCG (designed binder) [N2L.EET31.43.43 displayed on M13 phage (p3)]	2	10.2
GCIKSHLWCPSDERCLAGCVCEVWIQCG (designed binder, also called N2L.31.L2.32) [N2L.EET31.32 displayed on M13 phage (p3)]	0.5	3.7
GCIKSHLWCPRHEKCLAGCVCEVWIRCG (designed binder) [N2L.EET31.32.29 displayed on M13 phage (p3)]	2	9.3
GCVRSHLWCKQDSDCEAGCICEVWIKCG (designed binder) [N2L.EET31.43.73 displayed on M13 phage (p3)]	2.3	11
GCIKSHLWCHPKLDCEAGCICEVWIQCG (designed binder) [N2L.EET31.43.18 displayed on M13 phage (p3)]	2.1	10.2
GCIKSHLWCKQDSDCEAGCICEVWIQCG (designed binder, also called N2L.31.L34.43) [N2L.EET31.43 displayed on M13 phage (p3)]	0.7	5.1
GCIRSHVWCKQDSDCEAGCICEVWVKCG (designed binder) [N2L.EET31.43.64 displayed on M13 phage (p3)]	2	8.8
GCIRSQLWCPSDERCLAGCVCEVWIKCG (designed binder) [N2L.EET31.32.80 displayed on M13 phage (p3)]	2.1	7.6
GCIKSHLWCPGKERCLAGCICEIWIQCG (designed binder) [N2L.EET31.32.48 displayed on M13 phage (p3)]	1.9	7.2
GCGWTLRHCKQDSDCLAGCVCRPIWYCG (designed binder) [N2L.EET03.10 displayed on M13 phage]	3	48.4
GCIRSHLWCPPSASCLAGCVCEVWIQCG (designed binder) [N2L.EET31.32.70 displayed on M13 phage (p3)]	1.9	7.3
GCVRSHVWCPSDERCLAGCVCEIWIRCG (designed binder) [N2L.EET31.32.85 displayed on M13 phage (p3)]	2	4.3
